Experimental data as given in paper PMC406421 (Nuclear Receptor, 2004).
Values belong to the molecule of their own block, whether it stands above or below them.

Columns and labels:
[1] = biological target: GAL4-DBD/DRIP205 receptor interaction domain fusion protein (human) (UniProt Q15648); assay: two-hybrid
[2] = biological target: GAL4-DBD/DRIP205 receptor interaction domain fusion protein (human, UniProt Q15648 527-774); assay: two-hybrid
GAL4-DBD/DRIP205 receptor interaction domain fusion protein, sequence (Q15648 527-774): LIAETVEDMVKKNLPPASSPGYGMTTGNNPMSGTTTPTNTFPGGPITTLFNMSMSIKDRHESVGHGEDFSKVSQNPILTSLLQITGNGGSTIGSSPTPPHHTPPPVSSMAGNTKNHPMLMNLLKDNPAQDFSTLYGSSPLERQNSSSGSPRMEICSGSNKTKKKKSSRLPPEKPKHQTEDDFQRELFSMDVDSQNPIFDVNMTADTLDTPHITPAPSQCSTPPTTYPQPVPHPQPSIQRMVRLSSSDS

GAL4-DBD/DRIP205 receptor interaction domain fusion protein (human), sequence (Q15648 527-774): as above

fold induction of the interaction by CITCO over Me2SO (two-hybrid reporter) [1]: 100 fold
Molecule: VP16-AD/CAR-LBD fusion protein of CAR(SV2) (from UniProt Q14994-2 105-348) (domain or fragment)

fold induction of the interaction by CITCO over Me2SO (two-hybrid reporter) [2]: 2 fold
B1: VP16-AD/CAR-LBD fusion protein of reference CAR(SV1) (domain or fragment, human, UniProt Q14994-2 105-348, looked up)
chain: QLSKEQEELIRTLLGAHTRHMGTMFEQFVQFRPPAHLFIHHQPLPTLAPVLPLVTHFADINTFMVLQVIKFTKDLPVFRSLPIEDQISLLKGAAVEICHIVLNTTFCLQTQNFLCGPLRYTIEDGARVGFQVEFLELLFHFHGTLRKLQLQEPEYVLLAAMALFSPDRPGVTQRDEIDQLQEEMALTLQSYIKGQQRRPRDRFLYAKLLGLLAELRSINEAYGYQIQHIQGLSAMMPLLQEICS
